Reference: PMC9482650, “Quantitative fragmentomics allow affinity mapping of interactomes” (Nature Communications, 2022)

T1: APBA3_1, O96018
T1 sequence (O96018 389-490, limits assumed, looked up): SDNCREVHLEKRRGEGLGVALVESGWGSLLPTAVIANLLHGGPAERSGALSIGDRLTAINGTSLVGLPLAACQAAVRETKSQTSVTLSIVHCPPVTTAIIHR

T2: CARD11, Q9BXL7
T2 sequence (Q9BXL7 662-765, limits assumed, looked up): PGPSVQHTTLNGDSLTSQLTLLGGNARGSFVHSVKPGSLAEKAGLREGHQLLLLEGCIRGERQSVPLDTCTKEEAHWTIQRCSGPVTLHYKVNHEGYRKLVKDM

T3: TJP3_3, O95049
T3 sequence (O95049 375-456, limits assumed, looked up): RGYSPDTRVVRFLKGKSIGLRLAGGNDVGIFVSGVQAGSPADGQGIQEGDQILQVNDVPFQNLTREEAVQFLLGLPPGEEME

T4: MPP6, Q9NZW5
T4 sequence (Q9NZW5 125-219, limits assumed, looked up): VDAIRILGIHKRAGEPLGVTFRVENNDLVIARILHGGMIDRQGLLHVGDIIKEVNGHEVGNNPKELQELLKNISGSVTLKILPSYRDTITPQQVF

T5: FRMPD1, Q5SYB0
T5 sequence (Q5SYB0 52-145, limits assumed, looked up): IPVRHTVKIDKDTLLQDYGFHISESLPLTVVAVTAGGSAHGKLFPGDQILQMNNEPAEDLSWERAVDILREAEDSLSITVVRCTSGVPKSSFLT

T6: ARHGEF11, O15085
T6 sequence (O15085 42-136, limits assumed, looked up): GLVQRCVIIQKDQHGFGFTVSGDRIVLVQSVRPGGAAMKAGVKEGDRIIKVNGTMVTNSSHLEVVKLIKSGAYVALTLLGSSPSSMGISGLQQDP

T7: APBA2_1, Q99767
T7 sequence (Q99767 563-664, limits assumed, looked up): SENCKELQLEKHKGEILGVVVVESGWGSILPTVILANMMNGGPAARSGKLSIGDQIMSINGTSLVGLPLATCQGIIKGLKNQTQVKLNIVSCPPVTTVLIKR

T8: PDZD7_3, Q9H5P4
T8 sequence (Q9H5P4 857-944, limits assumed, looked up): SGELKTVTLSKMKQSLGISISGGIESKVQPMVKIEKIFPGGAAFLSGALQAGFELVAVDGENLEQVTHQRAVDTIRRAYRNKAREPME

T9: SNTA1, Q13424
T9 sequence (Q13424 82-180, limits assumed, looked up): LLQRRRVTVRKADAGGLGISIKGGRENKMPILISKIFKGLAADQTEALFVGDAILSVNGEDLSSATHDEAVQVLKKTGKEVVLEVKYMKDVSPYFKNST

T10: HTRA3, P83110
T10 sequence (P83110 354-453, limits assumed, looked up): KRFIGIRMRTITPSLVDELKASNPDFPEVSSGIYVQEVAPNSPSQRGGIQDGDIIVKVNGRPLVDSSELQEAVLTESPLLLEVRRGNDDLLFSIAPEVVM

T11: NHERF3_4, Q5T2W1
T11 sequence (Q5T2W1 373-468, limits assumed, looked up): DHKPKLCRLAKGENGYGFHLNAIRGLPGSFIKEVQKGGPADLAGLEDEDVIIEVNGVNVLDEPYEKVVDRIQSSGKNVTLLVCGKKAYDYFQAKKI

T12: RHPN1, Q8TCX5
T12 sequence (Q8TCX5 508-602, limits assumed, looked up): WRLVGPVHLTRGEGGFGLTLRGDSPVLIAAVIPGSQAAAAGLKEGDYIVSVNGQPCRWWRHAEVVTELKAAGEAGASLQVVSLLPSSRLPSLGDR

T13: MPP7, Q5T2T1
T13 sequence (Q5T2T1 134-230, limits assumed, looked up): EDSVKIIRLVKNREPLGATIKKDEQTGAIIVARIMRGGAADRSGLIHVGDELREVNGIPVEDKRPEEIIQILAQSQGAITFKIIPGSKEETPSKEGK

T14: SNTG1, Q9NSN8
T14 sequence (Q9NSN8 52-150, limits assumed, looked up): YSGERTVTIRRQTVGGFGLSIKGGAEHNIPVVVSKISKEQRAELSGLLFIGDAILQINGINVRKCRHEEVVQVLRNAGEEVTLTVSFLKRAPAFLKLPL

T15: TX1BP3, O14907
T15 sequence (O14907 10-122, limits assumed, looked up): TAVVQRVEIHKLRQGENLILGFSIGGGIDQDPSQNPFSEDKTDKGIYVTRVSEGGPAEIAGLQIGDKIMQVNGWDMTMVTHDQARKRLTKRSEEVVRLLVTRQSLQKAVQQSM


Biological target: T1, APBA3_1, O96018
Test: holdup assay
Set-up: key: below the threshold = too weak to quantify, mostly under pKd 3.1 to 4
Conditions: plain residues with an end cap or a label only (N-terminal biotin on a linker: ado-ado)

Binder | pKd
NTLNRKTTPV [CACNG8, Q8WXS5] | below the threshold
PTPDLPQTRV [KLHDC7A, Q5VTJ3] | below the threshold
ARGPPRESEV [FAM110D, Q8TAY7] | below the threshold

Biological target: T2, CARD11, Q9BXL7
Test: holdup assay
Set-up: key: below the threshold = too weak to quantify, mostly under pKd 3.1 to 4
Conditions: plain residues with an end cap or a label only (N-terminal biotin on a linker: ado-ado)

Binder | pKd
NTLNRKTTPV [CACNG8, Q8WXS5] | below the threshold
PTPDLPQTRV [KLHDC7A, Q5VTJ3] | below the threshold
ARGPPRESEV [FAM110D, Q8TAY7] | below the threshold

Biological target: T3, TJP3_3, O95049
Test: holdup assay
Set-up: key: below the threshold = too weak to quantify, mostly under pKd 3.1 to 4
Conditions: plain residues with an end cap or a label only (N-terminal biotin on a linker: ado-ado)

Binder | pKd
NTLNRKTTPV [CACNG8, Q8WXS5] | below the threshold
PTPDLPQTRV [KLHDC7A, Q5VTJ3] | below the threshold
ARGPPRESEV [FAM110D, Q8TAY7] | below the threshold

Biological target: TJP1_2, Q07157
Sequence (Q07157 181-274): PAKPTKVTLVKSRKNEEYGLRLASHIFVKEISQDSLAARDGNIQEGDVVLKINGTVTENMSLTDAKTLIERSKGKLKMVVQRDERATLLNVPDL
Test: holdup assay
Set-up: key: below the threshold = too weak to quantify, mostly under pKd 3.1 to 4
Conditions: plain residues with an end cap or a label only (N-terminal biotin on a linker: ado-ado)

Binder | pKd
NTLNRKTTPV [CACNG8, Q8WXS5] | below the threshold
PTPDLPQTRV [KLHDC7A, Q5VTJ3] | below the threshold
ARGPPRESEV [FAM110D, Q8TAY7] | below the threshold

Biological target: T4, MPP6, Q9NZW5
Test: holdup assay
Set-up: key: below the threshold = too weak to quantify, mostly under pKd 3.1 to 4
Conditions: plain residues with an end cap or a label only (N-terminal biotin on a linker: ado-ado)

Binder | pKd
NTLNRKTTPV [CACNG8, Q8WXS5] | 3.93
PTPDLPQTRV [KLHDC7A, Q5VTJ3] | below the threshold
ARGPPRESEV [FAM110D, Q8TAY7] | below the threshold

Biological target: T5, FRMPD1, Q5SYB0
Test: holdup assay
Set-up: key: below the threshold = too weak to quantify, mostly under pKd 3.1 to 4
Conditions: plain residues with an end cap or a label only (N-terminal biotin on a linker: ado-ado)

Binder | pKd
NTLNRKTTPV [CACNG8, Q8WXS5] | below the threshold
PTPDLPQTRV [KLHDC7A, Q5VTJ3] | below the threshold
ARGPPRESEV [FAM110D, Q8TAY7] | below the threshold

Biological target: T6, ARHGEF11, O15085
Test: holdup assay
Set-up: key: below the threshold = too weak to quantify, mostly under pKd 3.1 to 4
Conditions: plain residues with an end cap or a label only (N-terminal biotin on a linker: ado-ado)

Binder | pKd
NTLNRKTTPV [CACNG8, Q8WXS5] | 4.08
PTPDLPQTRV [KLHDC7A, Q5VTJ3] | 4.16
ARGPPRESEV [FAM110D, Q8TAY7] | 4

Biological target: T7, APBA2_1, Q99767
Test: holdup assay
Set-up: key: below the threshold = too weak to quantify, mostly under pKd 3.1 to 4
Conditions: plain residues with an end cap or a label only (N-terminal biotin on a linker: ado-ado)

Binder | pKd
NTLNRKTTPV [CACNG8, Q8WXS5] | below the threshold
PTPDLPQTRV [KLHDC7A, Q5VTJ3] | below the threshold
ARGPPRESEV [FAM110D, Q8TAY7] | below the threshold

Biological target: T8, PDZD7_3, Q9H5P4
Test: holdup assay
Set-up: key: below the threshold = too weak to quantify, mostly under pKd 3.1 to 4
Conditions: plain residues with an end cap or a label only (N-terminal biotin on a linker: ado-ado)

Binder | pKd
NTLNRKTTPV [CACNG8, Q8WXS5] | 4.56
PTPDLPQTRV [KLHDC7A, Q5VTJ3] | 5.04
ARGPPRESEV [FAM110D, Q8TAY7] | 4.47

Biological target: T9, SNTA1, Q13424
Test: holdup assay
Set-up: key: below the threshold = too weak to quantify, mostly under pKd 3.1 to 4
Conditions: plain residues with an end cap or a label only (N-terminal biotin on a linker: ado-ado)

Binder | pKd
NTLNRKTTPV [CACNG8, Q8WXS5] | 3.93
PTPDLPQTRV [KLHDC7A, Q5VTJ3] | 4.81
ARGPPRESEV [FAM110D, Q8TAY7] | 5.27

Biological target: T10, HTRA3, P83110
Test: holdup assay
Set-up: key: below the threshold = too weak to quantify, mostly under pKd 3.1 to 4
Conditions: plain residues with an end cap or a label only (N-terminal biotin on a linker: ado-ado)

Binder | pKd
NTLNRKTTPV [CACNG8, Q8WXS5] | below the threshold
PTPDLPQTRV [KLHDC7A, Q5VTJ3] | below the threshold
ARGPPRESEV [FAM110D, Q8TAY7] | below the threshold

Biological target: CASK, O14936
Sequence (O14936 487-570): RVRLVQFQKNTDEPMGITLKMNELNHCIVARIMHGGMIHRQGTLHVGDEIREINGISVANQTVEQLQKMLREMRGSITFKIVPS
Test: holdup assay
Set-up: key: below the threshold = too weak to quantify, mostly under pKd 3.1 to 4
Conditions: plain residues with an end cap or a label only (N-terminal biotin on a linker: ado-ado)

Binder | pKd
NTLNRKTTPV [CACNG8, Q8WXS5] | below the threshold
PTPDLPQTRV [KLHDC7A, Q5VTJ3] | below the threshold
ARGPPRESEV [FAM110D, Q8TAY7] | below the threshold

Biological target: T11, NHERF3_4, Q5T2W1
Test: holdup assay
Set-up: key: below the threshold = too weak to quantify, mostly under pKd 3.1 to 4
Conditions: plain residues with an end cap or a label only (N-terminal biotin on a linker: ado-ado)

Binder | pKd
NTLNRKTTPV [CACNG8, Q8WXS5] | 3.66
PTPDLPQTRV [KLHDC7A, Q5VTJ3] | below the threshold
ARGPPRESEV [FAM110D, Q8TAY7] | below the threshold

Biological target: GRIP2_7, Q9C0E4
Sequence (Q9C0E4 934-1023): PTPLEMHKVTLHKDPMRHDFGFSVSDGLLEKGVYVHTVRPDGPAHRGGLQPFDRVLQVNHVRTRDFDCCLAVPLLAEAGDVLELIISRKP
Test: holdup assay
Set-up: key: below the threshold = too weak to quantify, mostly under pKd 3.1 to 4
Conditions: plain residues with an end cap or a label only (N-terminal biotin on a linker: ado-ado)

Binder | pKd
NTLNRKTTPV [CACNG8, Q8WXS5] | below the threshold
PTPDLPQTRV [KLHDC7A, Q5VTJ3] | below the threshold
ARGPPRESEV [FAM110D, Q8TAY7] | below the threshold

Biological target: FRMPD2_1, Q68DX3
Sequence (Q68DX3 770-861): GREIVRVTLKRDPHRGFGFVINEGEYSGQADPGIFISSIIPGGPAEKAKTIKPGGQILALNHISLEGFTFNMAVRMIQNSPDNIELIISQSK
Test: holdup assay
Set-up: key: below the threshold = too weak to quantify, mostly under pKd 3.1 to 4
Conditions: plain residues with an end cap or a label only (N-terminal biotin on a linker: ado-ado)

Binder | pKd
NTLNRKTTPV [CACNG8, Q8WXS5] | below the threshold
PTPDLPQTRV [KLHDC7A, Q5VTJ3] | below the threshold
ARGPPRESEV [FAM110D, Q8TAY7] | below the threshold

Biological target: T12, RHPN1, Q8TCX5
Test: holdup assay
Set-up: key: below the threshold = too weak to quantify, mostly under pKd 3.1 to 4
Conditions: plain residues with an end cap or a label only (N-terminal biotin on a linker: ado-ado)

Binder | pKd
NTLNRKTTPV [CACNG8, Q8WXS5] | below the threshold
PTPDLPQTRV [KLHDC7A, Q5VTJ3] | 4.32
ARGPPRESEV [FAM110D, Q8TAY7] | 3.76

Biological target: MAGI1_1, Q96QZ7
Sequence (Q96QZ7 1-106): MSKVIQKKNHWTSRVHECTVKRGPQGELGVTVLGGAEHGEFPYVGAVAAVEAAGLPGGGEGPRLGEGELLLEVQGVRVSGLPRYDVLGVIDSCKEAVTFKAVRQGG
Test: holdup assay
Set-up: key: below the threshold = too weak to quantify, mostly under pKd 3.1 to 4
Conditions: plain residues with an end cap or a label only (N-terminal biotin on a linker: ado-ado)

Binder | pKd
NTLNRKTTPV [CACNG8, Q8WXS5] | below the threshold
PTPDLPQTRV [KLHDC7A, Q5VTJ3] | below the threshold
ARGPPRESEV [FAM110D, Q8TAY7] | below the threshold

Biological target: T13, MPP7, Q5T2T1
Test: holdup assay
Set-up: key: below the threshold = too weak to quantify, mostly under pKd 3.1 to 4
Conditions: plain residues with an end cap or a label only (N-terminal biotin on a linker: ado-ado)

Binder | pKd
NTLNRKTTPV [CACNG8, Q8WXS5] | below the threshold
PTPDLPQTRV [KLHDC7A, Q5VTJ3] | below the threshold
ARGPPRESEV [FAM110D, Q8TAY7] | below the threshold

Biological target: T14, SNTG1, Q9NSN8
Test: holdup assay
Set-up: key: below the threshold = too weak to quantify, mostly under pKd 3.1 to 4
Conditions: plain residues with an end cap or a label only (N-terminal biotin on a linker: ado-ado)

Binder | pKd
NTLNRKTTPV [CACNG8, Q8WXS5] | below the threshold
PTPDLPQTRV [KLHDC7A, Q5VTJ3] | 4.36
ARGPPRESEV [FAM110D, Q8TAY7] | 5.23

Biological target: T15, TX1BP3, O14907
Test: holdup assay
Set-up: key: below the threshold = too weak to quantify, mostly under pKd 3.1 to 4
Conditions: plain residues with an end cap or a label only (N-terminal biotin on a linker: ado-ado)

Binder | pKd
NTLNRKTTPV [CACNG8, Q8WXS5] | 5.01
PTPDLPQTRV [KLHDC7A, Q5VTJ3] | below the threshold
ARGPPRESEV [FAM110D, Q8TAY7] | 5.24

Biological target: GRIP2_4, Q9C0E4
Sequence (Q9C0E4 446-548): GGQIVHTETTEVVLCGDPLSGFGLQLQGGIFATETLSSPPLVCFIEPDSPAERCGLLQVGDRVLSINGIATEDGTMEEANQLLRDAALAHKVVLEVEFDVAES
Test: holdup assay
Set-up: key: below the threshold = too weak to quantify, mostly under pKd 3.1 to 4
Conditions: plain residues with an end cap or a label only (N-terminal biotin on a linker: ado-ado)

Binder | pKd
NTLNRKTTPV [CACNG8, Q8WXS5] | 3.52
PTPDLPQTRV [KLHDC7A, Q5VTJ3] | below the threshold
ARGPPRESEV [FAM110D, Q8TAY7] | below the threshold

Biological target: MAGI2_6, Q86UL8
Sequence (Q86UL8 1141-1229): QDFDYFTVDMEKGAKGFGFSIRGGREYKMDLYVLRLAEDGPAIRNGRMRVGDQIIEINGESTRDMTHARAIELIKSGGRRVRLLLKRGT
Test: holdup assay
Set-up: key: below the threshold = too weak to quantify, mostly under pKd 3.1 to 4
Conditions: plain residues with an end cap or a label only (N-terminal biotin on a linker: ado-ado)

Binder | pKd
NTLNRKTTPV [CACNG8, Q8WXS5] | below the threshold
PTPDLPQTRV [KLHDC7A, Q5VTJ3] | 3.61
ARGPPRESEV [FAM110D, Q8TAY7] | 4.3
